For one substance, Bound Ab detection by aducanumab, LMW (BRU) and Bound Ab detection by aducanumab, HMW (BRU) results are on record in patent US20230141177A1.

Assay [1] deals with AβO in the low molecular weight (LMW) fraction of pooled soluble human AD brain extract (~8 kDa to ~70 kDa) (human) (UniProt P05067). The assay is described as follows: sandwich SPR: LMW material captured by immobilized Clone 4, detected by aducanumab.
Assay [2] has as its target Aβ aggregates in the high molecular weight (HMW) fraction of pooled soluble human AD brain extract (>70 kDa to ~700 kDa) (human) (UniProt P05067). The assay is described as follows: sandwich SPR: HMW material captured by immobilized Parental, detected by aducanumab.
For assay [3] the target is unchanged. The assay can be described thus: sandwich SPR: HMW material captured by immobilized Clone 4, detected by aducanumab.
The target of assay [4] is AβO in the low molecular weight (LMW) fraction of pooled soluble human AD brain extract (~8 kDa to ~70 kDa) (human) (UniProt P05067). The assay is described as follows: sandwich SPR: LMW material captured by immobilized Clone 14, detected by aducanumab.
For assay [5], the target named is Aβ aggregates in the high molecular weight (HMW) fraction of pooled soluble human AD brain extract (>70 kDa to ~700 kDa) (human) (UniProt P05067). The assay can be described thus: sandwich SPR: HMW material captured by immobilized Clone 5, detected by aducanumab.
In assay [6] the target is AβO in the low molecular weight (LMW) fraction of pooled soluble human AD brain extract (~8 kDa to ~70 kDa) (human) (UniProt P05067). The assay is described as follows: sandwich SPR: LMW material captured by immobilized Parental, detected by aducanumab.
The target in assay [7] is Aβ aggregates in the high molecular weight (HMW) fraction of pooled soluble human AD brain extract (>70 kDa to ~700 kDa) (human) (UniProt P05067). The assay is described as follows: sandwich SPR: HMW material captured by immobilized Clone 14, detected by aducanumab.

Consider Aducanumab (antibody), for which the values for the Bound Ab detection by aducanumab, LMW (BRU) in assay [1], in assay [4] and in assay [6] were 7.7 BRU, 4.4 BRU and 5.8 BRU, respectively. Besides, the Bound Ab detection by aducanumab, HMW (BRU) in assay [2] stood at 8.3 BRU; in assay [3], 10.4 BRU; in assay [5], 1.25 BRU; in assay [7] it was 5.7 BRU.
